Experimental data from patent US20110118131A1 (published 2011).
Residue numbers refer to the chain shown, from its start. Names may count otherwise.

Columns and labels:
[1] = target: IL-1β (UniProt P01584 117-269); test: Biacore, Fab periplasmic extract on IL-1β
[2] = target: T1, Ep-CAM (UniProt P16422 24-265, limits assumed); test: Biacore, Fab periplasmic extract on immobilised Epcam
T1 sequence (looked up): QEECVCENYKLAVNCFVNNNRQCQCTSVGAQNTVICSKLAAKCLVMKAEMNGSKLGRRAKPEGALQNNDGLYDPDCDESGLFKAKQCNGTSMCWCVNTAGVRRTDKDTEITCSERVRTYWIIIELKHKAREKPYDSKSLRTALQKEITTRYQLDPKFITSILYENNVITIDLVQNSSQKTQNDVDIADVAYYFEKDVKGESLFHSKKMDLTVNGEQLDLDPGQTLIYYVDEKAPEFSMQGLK

B1: XPA23 light chain F94A (Fab, V domains shown)
VH: EVQLLESGGGLVQPGGSLRLSCAASGFTFSKYFMFWVRQAPGKGLEWVSVISPSGGMTRYADSVKGRFTISRDNSKNTLYLQMNSLRAEDTAVYYCARVGYGGNSDYWGQGTLVTVSS
VL: DIQMTQSPSSVSASVGDRLTIICRASQDINRWLAWYQQTPGNAPKLLIHSATSLQSGVPSRFSGSGSGTDFTLTINSLQPEDFATYYCQQADSAPLTFGGGTKVEIK
notes: Single light chain substitution; Fab in periplasmic extract; also called C5A (XPA23) F94A
binding result [1]: no binding

B2: XPA23 light chain S93I (Fab, V domains shown)
VH: B1 VH
VL: B1 VL with S93I, A94F
notes: Single light chain substitution; Fab in periplasmic extract; also called C5A (XPA23) S93I
fold difference in affinity vs original [1]: 1.35 fold

B3: XPA23 light chain S93P (Fab, V domains shown)
VH: B1 VH
VL: B1 VL with S93P, A94F
notes: Single light chain substitution; Fab in periplasmic extract; also called C5A (XPA23) S93P
binding result [1]: no binding

B4: XPA23 light chain P95T (Fab, V domains shown)
VH: B1 VH
VL: B1 VL with A94F, P95T
notes: Single light chain substitution; Fab in periplasmic extract; also called C5A (XPA23) P95T
binding result [1]: no binding

B5: XPA23 light chain S93A (Fab, V domains shown)
VH: B1 VH
VL: B1 VL with S93A, A94F
notes: Single light chain substitution; Fab in periplasmic extract; also called C5A (XPA23) S93A
fold difference in affinity vs original [1]: 1.16 fold

B6: XPA23 light chain S53P (Fab, V domains shown)
VH: B1 VH
VL: B1 VL with S53P, A94F
notes: Single light chain substitution; Fab in periplasmic extract; also called C5A (XPA23) S53P
fold difference in affinity vs original [1]: 4.92 fold

B7: XPA23 light chain S93V (Fab, V domains shown)
VH: B1 VH
VL: B1 VL with S93V, A94F
notes: Single light chain substitution; Fab in periplasmic extract; also called C5A (XPA23) S93V
fold difference in affinity vs original [1]: 3.81 fold

B8: XPA23 light chain S53A (Fab, V domains shown)
VH: B1 VH
VL: B1 VL with S53A, A94F
notes: Single light chain substitution; Fab in periplasmic extract; also called C5A (XPA23) S53A
fold difference in affinity vs original [1]: 1.07 fold

B9: XPA23 light chain F94V (Fab, V domains shown)
VH: B1 VH
VL: B1 VL with A94V
notes: Single light chain substitution; Fab in periplasmic extract; also called C5A (XPA23) F94V
fold difference in affinity vs original [1]: 0.2 fold

B10: XPA23 light chain S53L (Fab, V domains shown)
VH: B1 VH
VL: B1 VL with S53L, A94F
notes: Single light chain substitution; Fab in periplasmic extract; also called C5A (XPA23) S53L
fold difference in affinity vs original [1]: 0.99 fold

B11: XPA23 light chain F94G (Fab, V domains shown)
VH: B1 VH
VL: B1 VL with A94G
notes: Single light chain substitution; Fab in periplasmic extract; also called C5A (XPA23) F94G
binding result [1]: no binding

B12: XPA23 light chain P95V (Fab, V domains shown)
VH: B1 VH
VL: B1 VL with A94F, P95V
notes: Single light chain substitution; Fab in periplasmic extract; also called C5A (XPA23) P95V
binding result [1]: no binding

B13: XPA23 light chain L96T (Fab, V domains shown)
VH: B1 VH
VL: B1 VL with A94F, L96T
notes: Single light chain substitution; Fab in periplasmic extract; also called C5A (XPA23) L96T
fold difference in affinity vs original [1]: 0.06 fold

B14: XPA23 light chain F94P (Fab, V domains shown)
VH: B1 VH
VL: B1 VL with A94P
notes: Single light chain substitution; Fab in periplasmic extract; also called C5A (XPA23) F94P
fold difference in affinity vs original [1]: 0.17 fold

B15: XPA23 light chain S93T (Fab, V domains shown)
VH: B1 VH
VL: B1 VL with S93T, A94F
notes: Single light chain substitution; Fab in periplasmic extract; also called C5A (XPA23) S93T
fold difference in affinity vs original [1]: 1.47 fold

B16: XPA23 light chain S93L (Fab, V domains shown)
VH: B1 VH
VL: B1 VL with S93L, A94F
notes: Single light chain substitution; Fab in periplasmic extract; also called C5A (XPA23) S93L
fold difference in affinity vs original [1]: 1.08 fold

B17: XPA23 light chain L96P (Fab, V domains shown)
VH: B1 VH
VL: B1 VL with A94F, L96P
notes: Single light chain substitution; Fab in periplasmic extract; also called C5A (XPA23) L96P
binding result [1]: no binding

B18: XPA23 light chain S93G (Fab, V domains shown)
VH: B1 VH
VL: B1 VL with S93G, A94F
notes: Single light chain substitution; Fab in periplasmic extract; also called C5A (XPA23) S93G
fold difference in affinity vs original [1]: 0.75 fold

B19: XPA23 light chain F94L (Fab, V domains shown)
VH: B1 VH
VL: B1 VL with A94L
notes: Single light chain substitution; Fab in periplasmic extract; also called C5A (XPA23) F94L
fold difference in affinity vs original [1]: 0.55 fold

B20: XPA23 light chain L96I (Fab, V domains shown)
VH: B1 VH
VL: B1 VL with A94F, L96I
notes: Single light chain substitution; Fab in periplasmic extract; also called C5A (XPA23) L96I
fold difference in affinity vs original [1]: 0.67 fold

B21: XPA23 light chain P95G (Fab, V domains shown)
VH: B1 VH
VL: B1 VL with A94F, P95G
notes: Single light chain substitution; Fab in periplasmic extract; also called C5A (XPA23) P95G
binding result [1]: no binding

B22: XPA23 light chain F94T (Fab, V domains shown)
VH: B1 VH
VL: B1 VL with A94T
notes: Single light chain substitution; Fab in periplasmic extract; also called C5A (XPA23) F94T
binding result [1]: no binding

B23: XPA23 light chain L96A (Fab, V domains shown)
VH: B1 VH
VL: B1 VL with A94F, L96A
notes: Single light chain substitution; Fab in periplasmic extract; also called C5A (XPA23) L96A
fold difference in affinity vs original [1]: 0.26 fold

B24: XPA23 light chain P95I (Fab, V domains shown)
VH: B1 VH
VL: B1 VL with A94F, P95I
notes: Single light chain substitution; Fab in periplasmic extract; also called C5A (XPA23) P95I
binding result [1]: no binding

B25: XPA23 light chain P95L (Fab, V domains shown)
VH: B1 VH
VL: B1 VL with A94F, P95L
notes: Single light chain substitution; Fab in periplasmic extract; also called C5A (XPA23) P95L
binding result [1]: no binding

B26: XPA23 light chain L96G (Fab, V domains shown)
VH: B1 VH
VL: B1 VL with A94F, L96G
notes: Single light chain substitution; Fab in periplasmic extract; also called C5A (XPA23) L96G
binding result [1]: no binding

B27: XPA23 light chain P95A (Fab, V domains shown)
VH: B1 VH
VL: B1 VL with A94F, P95A
notes: Single light chain substitution; Fab in periplasmic extract; also called C5A (XPA23) P95A
fold difference in affinity vs original [1]: 3.83 fold

B28: XPA23 light chain F94I (Fab, V domains shown)
VH: B1 VH
VL: B1 VL with A94I
notes: Single light chain substitution; Fab in periplasmic extract; also called C5A (XPA23) F94I
fold difference in affinity vs original [1]: 0.88 fold

B29: XPA23 light chain S53G (Fab, V domains shown)
VH: B1 VH
VL: B1 VL with S53G, A94F
notes: Single light chain substitution; Fab in periplasmic extract; also called C5A (XPA23) S53G
fold difference in affinity vs original [1]: 1.03 fold

B30: XPA23 light chain S53I (Fab, V domains shown)
VH: B1 VH
VL: B1 VL with S53I, A94F
notes: Single light chain substitution; Fab in periplasmic extract; also called C5A (XPA23) S53I
fold difference in affinity vs original [1]: 1.42 fold

B31: XPA23 light chain S53V (Fab, V domains shown)
VH: B1 VH
VL: B1 VL with S53V, A94F
notes: Single light chain substitution; Fab in periplasmic extract; also called C5A (XPA23) S53V
fold difference in affinity vs original [1]: 1.42 fold

B32: ING-1 Fab, heavy chain A102L (Fab, V domains shown)
VH: QIQLVQSGPELKKPGETVKISCKASGYTFTKYGMNWVKQAPGKGLKWMGWINTYTEEPTYGDDFKGRFAFSLETSASTANLQINNLKSEDTATYFCARFGSLVDYWGQGTSVTVSS
VL: DIVMTQAAFSNPVTLGTSGSISCRSSKSLLHSNGITYLYWYLQKPGQSPQLLIYQMSNLASGVPDRFSSSGSGTDFTLRISRVEAEDVGVYYCAQNLELPRTFGGGTKLEMKR
notes: Fab in periplasmic extract
binding result [2]: no binding

B33: ING-1 Fab, heavy chain D104P (Fab, V domains shown)
VH: B32 VH with L102A, D104P
VL: B32 VL
notes: Fab in periplasmic extract
binding result [2]: no binding

B34: ING-1 Fab, heavy chain E57P (Fab, V domains shown)
VH: B32 VH with E57P, L102A
VL: B32 VL
notes: Fab in periplasmic extract
binding result [2]: no binding

B35: ING-1 Fab, heavy chain D104V (Fab, V domains shown)
VH: B32 VH with L102A, D104V
VL: B32 VL
notes: Fab in periplasmic extract
binding result [2]: no binding

B36: ING-1 Fab, heavy chain E56P (Fab, V domains shown)
VH: B32 VH with E56P, L102A
VL: B32 VL
notes: Fab in periplasmic extract
fold difference in affinity vs original [2]: 0.01 fold

B37: ING-1 Fab, heavy chain G33A (Fab, V domains shown)
VH: B32 VH with G33A, L102A
VL: B32 VL
notes: Fab in periplasmic extract
fold difference in affinity vs original [2]: 0.06 fold

B38: ING-1 Fab, heavy chain E57L (Fab, V domains shown)
VH: B32 VH with E57L, L102A
VL: B32 VL
notes: Fab in periplasmic extract
binding result [2]: no binding

B39: ING-1 Fab, heavy chain D104L (Fab, V domains shown)
VH: B32 VH with L102A, D104L
VL: B32 VL
notes: Fab in periplasmic extract
binding result [2]: no binding

B40: ING-1 Fab, heavy chain D104T (Fab, V domains shown)
VH: B32 VH with L102A, D104T
VL: B32 VL
notes: Fab in periplasmic extract
binding result [2]: no binding

B41: ING-1 Fab, heavy chain G33T (Fab, V domains shown)
VH: B32 VH with G33T, L102A
VL: B32 VL
notes: Fab in periplasmic extract
fold difference in affinity vs original [2]: 0.01 fold

B42: ING-1 Fab, heavy chain D104A (Fab, V domains shown)
VH: B32 VH with L102A, D104A
VL: B32 VL
notes: Fab in periplasmic extract
binding result [2]: no binding
